Experimental data from US20260217796A1 (NANJING GENSCRIPT BIOTECH, published 2026).

B1: 15G4-4 (antibody, V domains shown)
VH: QSVEESGGRLVTPGTPLTLTCTVSGFSLNSYTVNWVRQAPGKGLEWIGFISGGSGITNYATWAKGRFTISKTSTTVDLKLPSPTTEDTATYFCARGRYPGYGGDDYEDYYFNLWGQGTLVTVSS
VL: DVVMTQTQASVSAAVGGTVTIKCQASESIGSYLAWYQQKPGQPPRLLIYQASTLASGVSSRFKGSGSGTQFTLTISDLECDDAATYYCQGEFSCDGAHCNAFGGGTEVVVK
notes: Expressed recombinantly in ExpiCHO-S cells, purified on protein A as IgG and detected with anti-rabbit IgG (Fc-specific); also called anti-AAV2 rabbit monoclonal antibody 15G4-4; combination B
B2: 33G5-3 (antibody, V domains shown)
VH: QSVEESGGRLVTPGTPLTLTCTVSGIDLSSYAMSWVRQAPGKGLEWIGTINSDNYRYFGSWAKGRFTISKTSTTVDLKITSPTTEDTATYFCARQRGTSSGNAMDLWGPGTLVTVSS
VL: DVVMTQTPASVSAALGGTVTIKCQASQSIGSYLNWYQQKPGQPPKLLIYAASTLAYGVSSRFRGSGSGTEFTLTISDLECADAATYYCQTYYISDSSSHVFGGGTEVVVK
notes: Expressed recombinantly in ExpiCHO-S cells, purified on protein A as IgG and detected with anti-rabbit IgG (Fc-specific); also called anti-AAV2 rabbit monoclonal antibody 33G5-3; Biotin-33G5-3
B3: 19E10-3 (antibody, V domains shown)
VH: QSLEESGGDLVKPGSSLTLTCTASRFSFSGDYDMCWVRQAPGKGLEWIACIGAGDAITYYTNWARGRFTITYTSSTTMTLQLTSLTVADTAAYFCAAGADFAFKLWGPGTLVTVSS
VL: DIVMTQTPASVEAAVGGTVTIKCQASQSIMSLLAWYQQKPGQPPKLLIYEASKLASGVPSRFSGSGSGTQFTLTISDLECADAATYYCQGYVESSGRHYRFWAFGGGTEVVVK
notes: Expressed recombinantly in ExpiCHO-S cells, purified on protein A as IgG and detected with anti-rabbit IgG (Fc-specific); also called anti-AAV2 rabbit monoclonal antibody 19E10-3; combination C
B4: 8H8-1 (antibody, V domains shown)
VH: QSLVESGGGLVQPEGSLTLTCTASGFSFSNVYYMCWVRQAPGKGPDWIACIYINADSTYYPSWATGRFTISKTSSTTVTLQMTSLTAADTATYFCARVAAYYDVYFNLWGPGTVVTVSS
VL: AVVMTQTASPVSAAVGGTVTINCQASQSISSSYLSWYQQKPGQPPKLLIYYASILTSGVPSRFKGSGDGTEYSLTISGVQCDDAATYYCLYGRYSGASIDTVFGGGTEVVVK
notes: Expressed recombinantly in ExpiCHO-S cells, purified on protein A as IgG and detected with anti-rabbit IgG (Fc-specific); also called anti-AAV2 rabbit monoclonal antibody 8H8-1; combination A

Molecular target: T1, recombinant AAV2 virus-like particles (VLPs) of capsid proteins VP1, VP2 and VP3 (AAV2, UniProt P03135 1-735; P03135 139-735; P03135 203-735)
T1 construct: also called AAV2 VLP; antigen
Assay: indirect ELISA, plate coated with 1 ug/mL AAV2 VLP, 3-fold antibody dilutions from 1 ug/mL

T1 sequence (P03135 whole entry, chain 1 of 3): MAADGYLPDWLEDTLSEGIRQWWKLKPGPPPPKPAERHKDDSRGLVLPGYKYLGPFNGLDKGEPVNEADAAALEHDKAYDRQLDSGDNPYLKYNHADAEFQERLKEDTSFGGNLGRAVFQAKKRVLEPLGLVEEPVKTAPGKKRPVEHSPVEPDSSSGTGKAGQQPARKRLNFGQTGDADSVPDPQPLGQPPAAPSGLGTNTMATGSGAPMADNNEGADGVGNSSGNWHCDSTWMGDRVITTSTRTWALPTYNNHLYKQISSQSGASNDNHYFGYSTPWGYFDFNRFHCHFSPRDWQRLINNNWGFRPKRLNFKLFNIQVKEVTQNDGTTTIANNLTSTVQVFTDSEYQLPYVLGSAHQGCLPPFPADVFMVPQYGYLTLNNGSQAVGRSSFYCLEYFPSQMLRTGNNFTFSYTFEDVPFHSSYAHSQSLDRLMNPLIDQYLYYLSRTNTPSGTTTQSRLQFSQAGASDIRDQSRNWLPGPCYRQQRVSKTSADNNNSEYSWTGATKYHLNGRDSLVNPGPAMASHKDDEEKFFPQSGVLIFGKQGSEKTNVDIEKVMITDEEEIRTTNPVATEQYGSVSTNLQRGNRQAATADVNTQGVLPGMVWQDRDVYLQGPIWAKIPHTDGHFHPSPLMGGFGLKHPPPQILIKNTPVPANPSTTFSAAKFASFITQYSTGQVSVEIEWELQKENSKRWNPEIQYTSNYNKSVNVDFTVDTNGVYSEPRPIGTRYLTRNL
T1 sequence (P03135 139-735, tags left off, chain 2 of 3): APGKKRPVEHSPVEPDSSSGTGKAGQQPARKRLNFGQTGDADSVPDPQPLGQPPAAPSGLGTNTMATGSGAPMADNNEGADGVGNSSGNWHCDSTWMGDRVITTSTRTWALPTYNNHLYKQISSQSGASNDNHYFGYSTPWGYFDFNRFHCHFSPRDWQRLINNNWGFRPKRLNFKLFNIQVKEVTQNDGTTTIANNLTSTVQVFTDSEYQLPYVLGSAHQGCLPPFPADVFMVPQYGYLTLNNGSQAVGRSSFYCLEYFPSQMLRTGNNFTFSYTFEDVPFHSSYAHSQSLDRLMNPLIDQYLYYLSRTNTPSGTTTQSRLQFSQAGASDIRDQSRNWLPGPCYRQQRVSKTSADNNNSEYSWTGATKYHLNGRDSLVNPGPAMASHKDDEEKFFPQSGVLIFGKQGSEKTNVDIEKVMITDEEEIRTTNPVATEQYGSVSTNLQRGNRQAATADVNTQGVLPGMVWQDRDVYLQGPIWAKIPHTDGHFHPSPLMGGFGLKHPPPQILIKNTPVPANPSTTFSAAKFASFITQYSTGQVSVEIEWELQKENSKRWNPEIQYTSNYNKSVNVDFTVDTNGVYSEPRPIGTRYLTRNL
T1 sequence (P03135 203-735 limits assumed, chain 3 of 3): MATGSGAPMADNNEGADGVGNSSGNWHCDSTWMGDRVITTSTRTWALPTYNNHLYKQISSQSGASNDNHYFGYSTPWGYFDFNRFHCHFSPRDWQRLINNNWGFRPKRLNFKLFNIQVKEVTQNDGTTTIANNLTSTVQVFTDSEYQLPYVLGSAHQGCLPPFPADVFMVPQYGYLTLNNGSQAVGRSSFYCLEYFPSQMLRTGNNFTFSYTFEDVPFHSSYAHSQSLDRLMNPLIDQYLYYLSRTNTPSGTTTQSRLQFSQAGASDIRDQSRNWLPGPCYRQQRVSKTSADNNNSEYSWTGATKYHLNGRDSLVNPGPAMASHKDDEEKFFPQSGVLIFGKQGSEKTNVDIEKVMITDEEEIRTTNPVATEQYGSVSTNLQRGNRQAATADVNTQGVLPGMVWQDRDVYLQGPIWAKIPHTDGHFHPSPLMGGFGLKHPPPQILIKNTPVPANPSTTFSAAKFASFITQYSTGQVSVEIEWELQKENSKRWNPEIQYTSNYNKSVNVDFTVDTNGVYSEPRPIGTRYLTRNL

Binder	EC50
B1	1.77 ng/mL
B2	1.62 ng/mL
B3	3.94 ng/mL
B4	1.46 ng/mL
